Test results as given in PMC3585277, “The C-Terminal Region Mesd Peptide Mimics Full-Length Mesd and Acts as an Inhibitor of Wnt/β-Catenin Signaling in Cancer Cells” (PLoS ONE, 2013).

Columns and labels:
[1] = tested on: PC-3 cells; assay: Cell proliferation assay (trypan blue exclusion), PC-3 cells; assay type: cell-based, human; conditions: PC-3, RPMI-1640 2% FBS, 10 days; mMesd 2 µM, hMesd (160–197) 4 µM, control peptide 4 µM; n = 3
Experimental: (§1) Cells were seeded into 6-well plates at a density of 10000 cells/well. RPMI-1640 or DMEM medium containing 2% FBS was used as assay media. After 16 h incubation, the cells were treated with Mesd or its peptide for 10 days. Media were changed every other day. At the end of the experiment, cells were harvested and counted using the trypan blue exclusion assay.

[2] = tested on: LRP6 phosphorylation; assay: Western blot of phosphorylated LRP6 in C2C12 cells; assay type: cell-based, mouse; conditions: C2C12, Wnt3A CM 5%, 6 h; mMesd 0.5 µM, peptide at indicated concentrations
Experimental: (§2) Cells in 6-well plates were lysed in 0.5 ml of lysis buffer (phosphate-buffered saline containing 1% Triton X-100 and 1 mM PMSF) at 4°C for 10 min. Equal quantities of protein were subjected to SDS-PAGE under reducing conditions. Following transfer to immobilon-P transfer membrane, successive incubations with anti-HA, anti-Wnt10b, anti-β-catenin, anti-OPG, anti-phosphorylated-LRP6, anti-LRP6, anti-Axin2, anti-Cyclin D1 or anti-actin, and horseradish peroxidase-conjugated secondary antibody were carried out for 60–120 min at room temperature. The immunoreactive proteins were then detected using the ECL system. Films showing immunoreactive bands were scanned by Kodak Digital Science DC120 Zoom Digital Camera.

[3] = tested on: PC-3 cells; assay: Cell viability, Cell Titer Glo Assay, PC-3 cells; assay type: cell-based, human; conditions: Mesd 2 µM or hMesd (160–197) 2 µM with Adriamycin 0.5 µM, 2 days after pre-treatment
Experimental: (§3) Cell viability was measured in 96-well plates by the Cell Titer Glo Assay (Promega), which is a luminescent assay that is an indicator of live cells as a function of metabolic activity and ATP content.

[4] = tested on: PC-3 tumor; conditions: cited from earlier work
From the text: (§4) Treatment of prostate cancer cells with Wnt3A CM or purified recombinant Wnt ...

[5] = tested on: PC-3 cells; conditions: cited from earlier work
From the text: as §4

[6] = tested on: Wnt/β-catenin signaling; conditions: cited from earlier work
From the text: as §4

[7] = tested on: Wnt/β-catenin signaling; assay: Super8XTOPFlash luciferase reporter assay, PC-3 cells; assay type: cell-based, human; conditions: 24 h treatment
Experimental: (§5) Cells were plated into 24-well plates. After overnight culture, the cells were transiently transfected with the TOPFlash or Super8XTOPFlash luciferase construct, β-galactosidase-expressing vector, and pcDNA3.1C-Myc-hLRP5, pCS-Myc-hLRP6 or control vector. After 24 h incubation, cells were treated with Mesd, Mesd peptide, Rspo1 and Wnt3A CM. Cells were then lysed 24 h later and both luciferase and β-galactosidase activities were determined. The luciferase activity was normalized to the β-galactosidase activity.

[8] = tested on: HS578T cells; assay: Cell viability, Cell Titer Glo Assay, HS578T cells; assay type: cell-based, human
Experimental: as §3

[9] = tested on: MDA-MB-231 tumor; conditions: cited from earlier work
[10] = tested on: Wnt/β-catenin signaling; assay: Super8XTOPFlash luciferase reporter assay, HS578T cells; assay type: cell-based, human; conditions: 24 h treatment
Experimental: as §5

[11] = tested on: HS578T cells; assay: Cell proliferation assay (trypan blue exclusion), HS578T cells; assay type: cell-based, human; conditions: DMEM 2% FBS, 10 days, mMesd 2 µM, hMesd (160–197) 4 µM, control peptide 4 µM, n = 3
Experimental: as §1

[12] = tested on: Wnt/β-catenin signaling; assay: TOPFlash luciferase reporter assay, LRP5-transfected HEK293 cells; assay type: cell-based, human; conditions: Wnt3A CM 5%, Rspo1 40 ng/ml, mMesd 2 µM, peptide at indicated concentrations, 24 h, normalized to β-galactosidase
Experimental: as §5

[13] = tested on: OPG expression; assay: Western blot of OPG expression in C2C12 cells; assay type: cell-based, mouse; conditions: 48 h, mMesd 0.5 µM
Experimental: as §2

[14] = tested on: Wnt/β-catenin signaling; assay: TOPFlash luciferase reporter assay, LRP6-transfected HEK293 cells; assay type: cell-based, human; conditions: Wnt3A CM 5%, Rspo1 40 ng/ml, mMesd 2 µM, peptide at indicated concentrations, 24 h, normalized to β-galactosidase
Experimental: as §5

B1: Mesd protein: recombinant mouse Mesd protein, full-length; binds mature LRP5 and LRP6, universal antagonist of LRP5/6 modulators (protein)
chain: ADTPGEATPPPRKKKDIRDYNDADMARLLEQWEKDDDIEEGDLPEHKRPSAPIDFSKLDPGKPESILKMTKKGKTLMMFVTVSGNPTEKETEEITSLWQGSLFNANYDVQRFIVGSDRAIFMLRDGSYAWEIKDFLVSQDRCAEVTLEGQMYPGKGGGSKEKNKTKPEKAKKKEGDPKPRASKEDNRAGSRREDL
modifications: 125I (IODO-GEN method) on the radioligand; unlabeled when used as competitor
[1]
  cell proliferation: displayed inhibitory effect
[2]
  Wnt3A-induced endogenous LRP6 phosphorylation: able to suppress
[3]
  Adriamycin-induced cytotoxicity: potentiate
[4]
  PC-3 tumor growth in vivo: suppressed
[5]
  PC-3 cell proliferation in vitro: suppressed
[6]
  Wnt/β-catenin signaling in prostate cancer PC-3 cells: markedly inhibited
[7]; PC-3, endogenous signaling, indicated concentrations
  Wnt reporter luciferase activity: significantly repressed
[7]; PC-3 transfected with Wnt1 plasmid
  Wnt reporter luciferase activity induced by Wnt1: significantly repress
[8]; Mesd 2 µM or hMesd (160–197) 2 µM with Adriamycin 0.5 µM, 2 days after pre-treatment
  Adriamycin-induced cytotoxicity: potentiate
[8]; single agent: Mesd protein 2 µM or Adriamycin 0.5 µM, Mesd 4 days pre-treatment, then 2 days, n = 4
  inhibition of cell viability: 25%
[9]
  MDA-MB-231 tumor growth: suppressed
[10]; HS578T transfected with Wnt1 plasmid
  Wnt reporter luciferase activity induced by Wnt1: significantly repress
[10]; HS578T, endogenous signaling, indicated concentrations
  Wnt reporter luciferase activity: significantly repressed
[11]
  cell proliferation: displayed inhibitory effect
[12]
  TOPFlash activity induced by LRP5, LRP5 plus Wnt3A, LRP5 plus Rspo1: blocked
[13]; C2C12, Rspo1 20 ng/ml, Wnt3A CM 2%, mMesd (155–191) 2 µM
  OPG expression induced by Rspo1 plus Wnt3A: repressed
[13]; C2C12, Wnt3A CM 5%, peptide at indicated concentrations
  Wnt3A-induced OPG expression: able to suppress
[14]
  TOPFlash activity induced by LRP6, LRP6 plus Wnt3A, LRP6 plus Rspo1: blocked
